Columns and labels:
huNav1.7α+β1 = molecular target: T1, huNav1.7α+β1 (human, UniProt Q15858 1-1988; Q07699 19-218); test: binding FACS, HEKa/β1 cells
T1 construct: also called huNav1.7-beta1; HEKa/β1
Method: (§1) Binding of the ISVDs to cell-expressed Nav1.7α was detected via murine anti-Flag (Sigma, catalog #F1804). Briefly, cells were resuspended in FACS buffer (PBS, 10% FBS, NaN₃) and transferred to a 96-well V-bottom plate at 1×10^5 cells/well. Purified FLAG3-tagged ISVD was diluted in FACS buffer and added to the cells for 30 minutes at 4° C. […] Prior to the read-out, the samples were resuspended in 1 μg/mL propidium iodide (Sigma, catalog #P4170) to exclude dead cells. Between each step, the cells were centrifuged for 5 minutes at 200 grams and washed with 100 μL/well FACS buffer.

huNav1.7α + β1 (HEKa/β1) = molecular target: T2, huNav1.7α + β1 (HEKa/β1) (human, UniProt Q15858 1-1988; Q07699 19-218); test: binding FACS, HEKa/β1 cells
T2 construct: also called HEKa/β1 huNav1.7α
Method: as §1

huNav1.7α + β1-β2-β3 = molecular target: T3, huNav1.7α + β1-β2-β3 (human, UniProt Q15858 1-1988; A5A6L6 19-218; O60939 30-215; Q2KI11 23-215); test: binding FACS, CHO FlpIn cells
T3 construct: Cell line (CHO FlpIn, HEK FlpIn, transient HEK293T) is named under assay; also called huNav1.7-beta1-beta2-beta3; human Nav1.7α with Navβ1, Navβ2 and Navβ3
Procedure, shortened: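 Cells in FACS buffer (PBS, 10% FBS, NaN₃) were incubated with purified FLAG3-tagged ISVD for 30 minutes at 4° C. Bound ISVD was detected by flow cytometry with murine anti-Flag, and dead cells were excluded with 1 μg/mL propidium iodide.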

| Binder | Bmax relative to '535 (huNav1.7α+β1) [%] | EC50 (huNav1.7α+β1) [nM] | EC50 (huNav1.7α + β1 (HEKa/β1)) [nM] | EC50 (huNav1.7α + β1-β2-β3) [nM] |
| --- | --- | --- | --- | --- |
| F010301232 (VHH, vs F0103265A11: A31R, N58T, S93A, L103Q) VHH: EVQLVESGGGLVQPGGSLRLSCAASGMLFNRNTQGWYRQAPGKQRELVAFIFSGGYTTYVDSVKGRFTISRDNAKRTMYLQMNSLKPEDSAIYYCALSRYQGQGTLVTVSS | 112 | 9.3 |  |  |
| F010301593 (VHH, R96K vs F0103362B08 (Kabat)) VHH: EVQLVESGGGLVQAGGSLRLSCAASVRPFSTSAMGWFRQAPEKEREAVAGILWNGIVTYYADSVKGRFTISRDNAKNEVYLQMNKLKPEDTAVYYCALDKDYGGRSFSAYEYEYWGQGTLVTVSS |  |  | 40 | 110 |
| F010301584 (VHH, W52aT vs F0103362B08 (Kabat)) VHH: EVQLVESGGGLVQAGGSLRLSCAASVRPFSTSAMGWFRQAPEKEREAVAGILTNGIVTYYADSVKGRFTISRDNAKNEVYLQMNKLKPEDTAVYYCALDRDYGGRSFSAYEYEYWGQGTLVTVSS |  |  | 42 | 110 |
| F010301618 (VHH, Y102H vs F0103362B08 (Kabat)) VHH: EVQLVESGGGLVQAGGSLRLSCAASVRPFSTSAMGWFRQAPEKEREAVAGILWNGIVTYYADSVKGRFTISRDNAKNEVYLQMNKLKPEDTAVYYCALDRDYGGRSFSAYEYEHWGQGTLVTVSS |  |  | 39 | 190 |
| F010301586 (VHH, W52aA vs F0103362B08 (Kabat)) VHH: EVQLVESGGGLVQAGGSLRLSCAASVRPFSTSAMGWFRQAPEKEREAVAGILANGIVTYYADSVKGRFTISRDNAKNEVYLQMNKLKPEDTAVYYCALDRDYGGRSFSAYEYEYWGQGTLVTVSS |  |  | 51 | 170 |
| F010301596 (VHH, G99A vs F0103362B08 (Kabat)) VHH: EVQLVESGGGLVQAGGSLRLSCAASVRPFSTSAMGWFRQAPEKEREAVAGILWNGIVTYYADSVKGRFTISRDNAKNEVYLQMNKLKPEDTAVYYCALDRDYAGRSFSAYEYEYWGQGTLVTVSS |  |  | 50 | 140 |
| F010301585 (VHH, V56P vs F0103362B08 (Kabat)) VHH: EVQLVESGGGLVQAGGSLRLSCAASVRPFSTSAMGWFRQAPEKEREAVAGILWNGIPTYYADSVKGRFTISRDNAKNEVYLQMNKLKPEDTAVYYCALDRDYGGRSFSAYEYEYWGQGTLVTVSS |  |  | 53 | 110 |
| F010301568 (VHH, G35T vs F0103362B08 (Kabat)) VHH: EVQLVESGGGLVQAGGSLRLSCAASVRPFSTSAMTWFRQAPEKEREAVAGILWNGIVTYYADSVKGRFTISRDNAKNEVYLQMNKLKPEDTAVYYCALDRDYGGRSFSAYEYEYWGQGTLVTVSS |  |  | 110 | 310 |
| F010301619 (VHH, F100cK vs F0103362B08 (Kabat)) VHH: EVQLVESGGGLVQAGGSLRLSCAASVRPFSTSAMGWFRQAPEKEREAVAGILWNGIVTYYADSVKGRFTISRDNAKNEVYLQMNKLKPEDTAVYYCALDRDYGGRSKSAYEYEYWGQGTLVTVSS |  |  | 47 | 180 |
| F010301591 (VHH, G99K vs F0103362B08 (Kabat)) VHH: EVQLVESGGGLVQAGGSLRLSCAASVRPFSTSAMGWFRQAPEKEREAVAGILWNGIVTYYADSVKGRFTISRDNAKNEVYLQMNKLKPEDTAVYYCALDRDYKGRSFSAYEYEYWGQGTLVTVSS |  |  | 43 | 93 |
| F010301604 (VHH, R100aQ vs F0103362B08 (Kabat)) VHH: EVQLVESGGGLVQAGGSLRLSCAASVRPFSTSAMGWFRQAPEKEREAVAGILWNGIVTYYADSVKGRFTISRDNAKNEVYLQMNKLKPEDTAVYYCALDRDYGGQSFSAYEYEYWGQGTLVTVSS |  |  | 52 | 190 |
| F010301592 (VHH, R100aS vs F0103362B08 (Kabat)) VHH: EVQLVESGGGLVQAGGSLRLSCAASVRPFSTSAMGWFRQAPEKEREAVAGILWNGIVTYYADSVKGRFTISRDNAKNEVYLQMNKLKPEDTAVYYCALDRDYGGSSFSAYEYEYWGQGTLVTVSS |  |  | 67 | 200 |
| F010301589 (VHH, I55P vs F0103362B08 (Kabat)) VHH: EVQLVESGGGLVQAGGSLRLSCAASVRPFSTSAMGWFRQAPEKEREAVAGILWNGPVTYYADSVKGRFTISRDNAKNEVYLQMNKLKPEDTAVYYCALDRDYGGRSFSAYEYEYWGQGTLVTVSS |  |  | 41 | 120 |
| F010301617 (VHH, F100cQ vs F0103362B08 (Kabat)) VHH: EVQLVESGGGLVQAGGSLRLSCAASVRPFSTSAMGWFRQAPEKEREAVAGILWNGIVTYYADSVKGRFTISRDNAKNEVYLQMNKLKPEDTAVYYCALDRDYGGRSQSAYEYEYWGQGTLVTVSS |  |  | 44 | 170 |
| F010301612 (VHH, Y100fT vs F0103362B08 (Kabat)) VHH: EVQLVESGGGLVQAGGSLRLSCAASVRPFSTSAMGWFRQAPEKEREAVAGILWNGIVTYYADSVKGRFTISRDNAKNEVYLQMNKLKPEDTAVYYCALDRDYGGRSFSATEYEYWGQGTLVTVSS |  |  | 44 | 170 |

Further lines, results first:

| Bmax relative to '535 (huNav1.7α+β1) [%] | EC50 (huNav1.7α+β1) [nM] | EC50 (huNav1.7α + β1 (HEKa/β1)) [nM] | EC50 (huNav1.7α + β1-β2-β3) [nM] | Binder |
| --- | --- | --- | --- | --- |
|  |  | 24 | 110 | F010301567 (VHH, F29Y vs F0103362B08 (Kabat)) VHH: EVQLVESGGGLVQAGGSLRLSCAASVRPYSTSAMGWFRQAPEKEREAVAGILWNGIVTYYADSVKGRFTISRDNAKNEVYLQMNKLKPEDTAVYYCALDRDYGGRSFSAYEYEYWGQGTLVTVSS |
|  |  | 34 | 150 | F010301621 (VHH, Y100fG vs F0103362B08 (Kabat)) VHH: EVQLVESGGGLVQAGGSLRLSCAASVRPFSTSAMGWFRQAPEKEREAVAGILWNGIVTYYADSVKGRFTISRDNAKNEVYLQMNKLKPEDTAVYYCALDRDYGGRSFSAGEYEYWGQGTLVTVSS |
|  |  | 29 | 100 | F010301574 (VHH, G35A vs F0103362B08 (Kabat)) VHH: EVQLVESGGGLVQAGGSLRLSCAASVRPFSTSAMAWFRQAPEKEREAVAGILWNGIVTYYADSVKGRFTISRDNAKNEVYLQMNKLKPEDTAVYYCALDRDYGGRSFSAYEYEYWGQGTLVTVSS |
|  |  | 17 | 62 | F010301595 (VHH, D97A vs F0103362B08 (Kabat)) VHH: EVQLVESGGGLVQAGGSLRLSCAASVRPFSTSAMGWFRQAPEKEREAVAGILWNGIVTYYADSVKGRFTISRDNAKNEVYLQMNKLKPEDTAVYYCALDRAYGGRSFSAYEYEYWGQGTLVTVSS |
|  |  | 30 | 90 | F010301607 (VHH, Y100fA vs F0103362B08 (Kabat)) VHH: EVQLVESGGGLVQAGGSLRLSCAASVRPFSTSAMGWFRQAPEKEREAVAGILWNGIVTYYADSVKGRFTISRDNAKNEVYLQMNKLKPEDTAVYYCALDRDYGGRSFSAAEYEYWGQGTLVTVSS |
|  |  | 36 | 130 | F010301579 (VHH, R27K vs F0103362B08 (Kabat)) VHH: EVQLVESGGGLVQAGGSLRLSCAASVKPFSTSAMGWFRQAPEKEREAVAGILWNGIVTYYADSVKGRFTISRDNAKNEVYLQMNKLKPEDTAVYYCALDRDYGGRSFSAYEYEYWGQGTLVTVSS |
|  |  | 37 | 190 | F010301609 (VHH, Y100fQ vs F0103362B08 (Kabat)) VHH: EVQLVESGGGLVQAGGSLRLSCAASVRPFSTSAMGWFRQAPEKEREAVAGILWNGIVTYYADSVKGRFTISRDNAKNEVYLQMNKLKPEDTAVYYCALDRDYGGRSFSAQEYEYWGQGTLVTVSS |
|  |  | 29 | 110 | F010301594 (VHH, R100aK vs F0103362B08 (Kabat)) VHH: EVQLVESGGGLVQAGGSLRLSCAASVRPFSTSAMGWFRQAPEKEREAVAGILWNGIVTYYADSVKGRFTISRDNAKNEVYLQMNKLKPEDTAVYYCALDRDYGGKSFSAYEYEYWGQGTLVTVSS |
|  |  | 30 | 120 | F010301578 (VHH, S30G vs F0103362B08 (Kabat)) VHH: EVQLVESGGGLVQAGGSLRLSCAASVRPFGTSAMGWFRQAPEKEREAVAGILWNGIVTYYADSVKGRFTISRDNAKNEVYLQMNKLKPEDTAVYYCALDRDYGGRSFSAYEYEYWGQGTLVTVSS |
|  |  | 29 | 89 | F010301598 (VHH, G99Q vs F0103362B08 (Kabat)) VHH: EVQLVESGGGLVQAGGSLRLSCAASVRPFSTSAMGWFRQAPEKEREAVAGILWNGIVTYYADSVKGRFTISRDNAKNEVYLQMNKLKPEDTAVYYCALDRDYQGRSFSAYEYEYWGQGTLVTVSS |
|  |  | 24 | 65 | F010301606 (VHH, Y100fK vs F0103362B08 (Kabat)) VHH: EVQLVESGGGLVQAGGSLRLSCAASVRPFSTSAMGWFRQAPEKEREAVAGILWNGIVTYYADSVKGRFTISRDNAKNEVYLQMNKLKPEDTAVYYCALDRDYGGRSFSAKEYEYWGQGTLVTVSS |
|  |  | 35 | 180 | F010301580 (VHH, R27T vs F0103362B08 (Kabat)) VHH: EVQLVESGGGLVQAGGSLRLSCAASVTPFSTSAMGWFRQAPEKEREAVAGILWNGIVTYYADSVKGRFTISRDNAKNEVYLQMNKLKPEDTAVYYCALDRDYGGRSFSAYEYEYWGQGTLVTVSS |

Reference: patent US20240002497A1 (Merck Sharp & Dohme, published 2024)
